Laboratory results: the nanobody polyreactivity screen of Harvey et al. (2022)

Assay: yeast display, Sf9 membrane polyspecificity reagent, FACS + sequencing; frameworks hold sequencing errors
How it was run: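 Nanobodies came from a synthetic yeast display library in Saccharomyces cerevisiae BJ5465, induced with galactose for 36–48 hours and stained for 1 hour at 4 °C with 10% biotinylated, detergent-solubilized Sf9 membrane reagent. Cells were enriched on streptavidin microbeads and then FACS-sorted, with low and high (top ~1%) gates set on anti-HA fluorescence for expression and streptavidin fluorescence for reagent binding. Each polyreactivity label reflects the gate a clone came from. Genes were amplified by colony PCR, sequenced by MiSeq 2 × 250 and filtered by CDR length.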

Sequence | polyreactivity (PSR sort gate)
QVQLVESGGGLVQAGGSLRLSCAASGFTFVDNAMGWYRQAPGKERELVAVIDFNDGTTYYADSVKGRFTISRDNAKNTVYLLMNSLKPEDTEVYYCNVDSSLILWVEYDYWGQGTQVTVSS | low polyreactivity
QVQLVESGGGLVQAGGSLRLSCAASGFTFVFYAMGWYRQAPGKERELVAAINSGGSTYYADSVKGRFTISRDIAKNTDYLQMNSLKPEDTAVYYCAKGSYGPSAGYGRRYYYWGQGTQVTVSS | high polyreactivity
QVQLVESGGGLVQAGGSLRLSCAASGFTFVIHDMGWYRQAPGKERELVADITSGGDTYYADSVKGRFTISRDNAKNTVYLQMNSQKPEDTAVYYCAADIYPDWIYLLYGYWGQGTQGTVSS | low polyreactivity
QVQLVESGGGLVQAGGSLRLSCAASGFTFVINYMGWYRQAPGKERELVADITSGGDTYYADSVKGRFTISRDNAKNTVYLQMNSLNPEDTAVYYCAADIYPDWIYLLYGYWGQVTQVTVSS | low polyreactivity
QVQLVESGGGLVQAGGSLRLSCAASGFTFVNYAMGWYRQAPGKERELVAAISSGGRTYYADSVKGRFTISRDNAKNTVYLQMNSLKPEDTAVYYCAARYKGRAIWMDYWGQGTQVTVSS | high polyreactivity
QVQLVESGGGLVQAGGSLRLSCAASGFTFVNYARGWYRQAPGKERELVAAIRRSGSRTYYADSVKGRFTISRDNAKNTVYLQMHSLKPEDTAVYYCAAVWYRLYGYWGQGTQVTVSS | low polyreactivity
QVQLVESGGGLVQAGGSLRLSCAASGFTFVPYARGWYRQAPGKDREWVAAISRRGGSTYYADSVKGRFTISRDYAKNTVYLQMNSLKPEDTAVYYCAKDGPGGGTRIYDYWGQGTQVTVSS | high polyreactivity
QVQLVESGGGLVQAGGSLRLSCAASGFTFVQYAMGWYRQAPGKERELVATISKSGGITYYADSVKGRFTISRDNAKNTVYLQMNSLKPEDNAVYYCAAAWYYSSRGFHATWGHDYWGQGTQVTVSS | low polyreactivity
QVQLVESGGGLVQAGGSLRLSCAASGFTFVRYAMGWYRQAPGKERELVAAISRGGGRTSYADSVKGRFTISRDNAKNTVYLQMNSLKPEDTAVYYCATGTYAAAQGTRYYYLGQGTQVTVSS | high polyreactivity
QVQLVESGGGLVQAGGSLRLSCAASGFTFVRYAMGWYTQAPGKERELDAAITRGGGSTYYADSVKGRFTISRDYAKNTVYLQMNSLKPEDTAVYYCAKGPGRPVSYEIPYKYNYWGQGTHVTVSS | high polyreactivity
QVQLVESGGGLVQAGGSLRLSCAASGFTFVRYTMGWYRQAPGKERELVAAITSGGSTTYADSVKGRFTISRDNAKNTVYLQMNSLKPEDTAVYYCNAVFYLQYETGRELDYWGQGTQVTVSS | high polyreactivity
QVQLVESGGGLVQAGGSLRLSCAASGFTFVSNAMGWYRQAPGKEREMVADITSDGSTNYADSVKGRFTISRDNAKNTVSLQMNSLKPEDTAVYYCNADASYGFWSLLHYDYWGQATQVTVSS | low polyreactivity
QVQLVESGGGLVQAGGSLRLSCAASGFTFVSYTMGWYRQAPGKERELVAVITKRGGSTYYADSVKGRFTISRDNAKNTVYLQLNCLKPEDTAVYYCNAVQAYKSPSLPLAGGNYWGQGTQVTVSS | high polyreactivity
QVQLVESGGGLVQAGGSLRLSCAASGFTFVYNAMGWYRQAPGKERELVAAITSGGNTYYADSVKGRFTISRDNAKNTVYLQMNSLKPEDTAVYYCAKRGYGRYYAYDYWGQGTQVTVSS | high polyreactivity
QVQLVESGGGLVQAGGSLRLSCAASGFTFVYYDMGWYRQAPGKERELVAAISRSGGSTYYADSVKGRFTISRDNAQNTVYLQMNSLKPEDTAVYYCAAGKNYGSRLSYEYWGQGTQVTVSS | high polyreactivity
QVQLVESGGGLVQAGGSLRLSCAASGFTFVYYVMGWYRQAPGKERELVAAITRRGGNTYYADSVKGRFTISRDNAKNTVYLQMNSLKPEDTAVYYCNAVLRYGHGPYQKGDYWGQGTQVTVSS | high polyreactivity

Sequence | polyreactivity (PSR sort gate)
QVQLVESGGGLVQAGGSLRLSCAASGFTFWHYAMGWYRQAPGKERELVAAITWDGGSTYYADSVKGRFTISRDNAKNTFYLQMQSLKPEDNAVYYCAKLFGGTYYEYDYWGQGTQVTVSS | low polyreactivity
QVQLVESGGGLVQAGGSLRLSCAASGFTFWLYAMGWYRQATGKERELVAAIDWDGGTYYADSVKGRFTISRDNAKNTVYLQMNSLKPEDTAVYYCAARYRYYYTRYDYWGQGTQVTVSS | high polyreactivity
QVQLVESGGGLVQAGGSLRLSCAASGFTFWRNAMGWYRQAPGKERELVAAISWRGGSTYYADSVKGRFTISRDNAKNTVYLQMNSLKPEDTAVYYCNALHWQSKELDYYWGQGTQVTVSS | high polyreactivity
QVQLVESGGGLVQAGGSLRLSCAASGFTFWRYAMGWYIQAPGKERELVAAISYSGGRTYYADSVKGRFTISRDNAKNTVYLQMNSLKPEDTAVYYCAASRVTYGGPYRDDYDYWGQGTQVTVSS | high polyreactivity
QVQLVESGGGLVQAGGSLRLSCAASGFTFWRYAMGWYREAPGKERELVAAITGLGRTNYADSVKGRFTISRDNAKNTVYLQMNSLKPEDTADYYCNVVRVYRYDYWGQGTQVTVSS | high polyreactivity
QVQLVESGGGLVQAGGSLRLSCAASGFTFWRYAMGWYRQAPGKEREFVAVISISSGTTYADSVKGRFTITRDNAKNTVYLQMNSLKPEDTAVYYCAAAIGVYYIEYRYLGTVEYWGQGTQVTVSS | low polyreactivity
QVQLVESGGGLVQAGGSLRLSCAASGFTFWRYAMGWYRQAPGKERELVAAISRTGGRTYYADSVKGRFTISRDNAKNTVYLQMNSLKPEDTAVYYCAADWLYDYGEYYYWGQGTQVTVSS | high polyreactivity
QVQLVESGGGLVQAGGSLRLSCAASGFTFWRYAMGWYRQAPGKERELVAAITWSGGRTYYADSVKGRFTISRDNAKNTVYLQMNSLKPEDTAVYYCNVDAYGYRPYRYYYWGQGTQVTVSS | high polyreactivity
QVQLVESGGGLVQAGGSLRLSCAASGFTFWTYAMGWYRQAPGKERELVAAIDSGGSTYYADSVKGRFTITRDNAKNTVYLQMNSLKPEDTAVYYCNAGPSVTSGYDYDYWGQGTQVTVSS | low polyreactivity
QVQLVESGGGLVQAGGSLRLSCAASGFTFWYYAMGWYRQAPGKERELVAAISSGSSTNYADSVKGRFTISRDNPKNTVYLQMNSLKPEDTAVDYCAADKYPSSPYVGDVDYWGQGTQVTVSS | high polyreactivity
QVQLVESGGGLVQAGGSLRLSCAASGFTFWYYAMGWYRQAPGKERELVAGIDSGGSTYYADSVKGRFTISRDNAKNTVYFQMNSLKPEETAVYYCAARPDQGLAYSPLPWYNYWGQGTQVTVSS | low polyreactivity
QVQLVESGGGLVQAGGSLRLSCAASGFTFWYYAMGWYRQAPGKERELVASISASGGRTNYADSVKGRFTISRDNAKNTVYLQMNSLKPEDTAVYYCAACRVRYSYGYPYYYWGQGTQVTVSS | high polyreactivity
QVQLVESGGGLVQAGGSLRLSCAASGFTFWYYAMGWYRQAPGKERELVASISRTGGTTYYADSVKGRFTISRDNAKNTVYLQMNSLKPEDTAVYYCNARPKVYYREYDYWGQGTQVTVSS | high polyreactivity
QVQLVESGGGLVQAGGSLRLSCAASGFTFYAYAMGWYRQAPGKERELVAAISGSGGRTYYADSVKGRFTISRDNAKNTVYLQMNSLKPEDTAVYYCAADRPGGSYDYWGQGTQVTVSS | high polyreactivity
QVQLVESGGGLVQAGGSLRLSCAASGFTFYFYAMGWYRQAPGKERDLVAAINSGDSTYYADSVKGRFTISSDNEKNTVYLQMNSLKPEDTAVYYCSAAQFIQLRDYWGQGTQVTVSS | high polyreactivity
